From patent US20120196760A1, “METHODS AND COMPOSITIONS FOR IDENTIFYING MODULATORS OF ANTI-TETHERIN ACTIVITY TO INHIBIT P[…] VIRUSES” (CHILDRENS HOSPITAL LOS ANGELES, priority 2008, published 2012)

Tested on: HIV-1 VLPs
Test: HIV-1 VLP release from cells expressing Tetherin constructs (Western blot, % VLP release)
Type: cell-based
Conditions: Tetherin expressed alone, no anti-Tetherin; FIG. 9B

B1: full-length human Tetherin: human cellular protein that tethers newly budded HIV particles at the cell surface and restricts virus release (protein)
chain: MASTSYDYCRVPMEDGDKRCKLLLGIGILVLLIIVILGVPLIIFTIKANSEACRDGLRAVMECRNVTHLLQQELTEAQKGFQDVEAQAATCNHTVMALMASLDAEKAQGQKKVEELEGEITTLNHKLQDASAEVERLRRENQVLSVRIADKKYYPSSQDSS
  reduction of release of Virus-Like Particles (VLPs): about 95%
